Measured values published in article PMC2114023 (The Journal of Cell Biology, 1985).

Molecular target: clathrin heavy chain (bovine brain) (bovine, UniProt P49951 1-1675, 3H-labelled by reductive methylation)
Experiment: co-IP

Sequence of clathrin heavy chain (bovine brain) (P49951 whole entry): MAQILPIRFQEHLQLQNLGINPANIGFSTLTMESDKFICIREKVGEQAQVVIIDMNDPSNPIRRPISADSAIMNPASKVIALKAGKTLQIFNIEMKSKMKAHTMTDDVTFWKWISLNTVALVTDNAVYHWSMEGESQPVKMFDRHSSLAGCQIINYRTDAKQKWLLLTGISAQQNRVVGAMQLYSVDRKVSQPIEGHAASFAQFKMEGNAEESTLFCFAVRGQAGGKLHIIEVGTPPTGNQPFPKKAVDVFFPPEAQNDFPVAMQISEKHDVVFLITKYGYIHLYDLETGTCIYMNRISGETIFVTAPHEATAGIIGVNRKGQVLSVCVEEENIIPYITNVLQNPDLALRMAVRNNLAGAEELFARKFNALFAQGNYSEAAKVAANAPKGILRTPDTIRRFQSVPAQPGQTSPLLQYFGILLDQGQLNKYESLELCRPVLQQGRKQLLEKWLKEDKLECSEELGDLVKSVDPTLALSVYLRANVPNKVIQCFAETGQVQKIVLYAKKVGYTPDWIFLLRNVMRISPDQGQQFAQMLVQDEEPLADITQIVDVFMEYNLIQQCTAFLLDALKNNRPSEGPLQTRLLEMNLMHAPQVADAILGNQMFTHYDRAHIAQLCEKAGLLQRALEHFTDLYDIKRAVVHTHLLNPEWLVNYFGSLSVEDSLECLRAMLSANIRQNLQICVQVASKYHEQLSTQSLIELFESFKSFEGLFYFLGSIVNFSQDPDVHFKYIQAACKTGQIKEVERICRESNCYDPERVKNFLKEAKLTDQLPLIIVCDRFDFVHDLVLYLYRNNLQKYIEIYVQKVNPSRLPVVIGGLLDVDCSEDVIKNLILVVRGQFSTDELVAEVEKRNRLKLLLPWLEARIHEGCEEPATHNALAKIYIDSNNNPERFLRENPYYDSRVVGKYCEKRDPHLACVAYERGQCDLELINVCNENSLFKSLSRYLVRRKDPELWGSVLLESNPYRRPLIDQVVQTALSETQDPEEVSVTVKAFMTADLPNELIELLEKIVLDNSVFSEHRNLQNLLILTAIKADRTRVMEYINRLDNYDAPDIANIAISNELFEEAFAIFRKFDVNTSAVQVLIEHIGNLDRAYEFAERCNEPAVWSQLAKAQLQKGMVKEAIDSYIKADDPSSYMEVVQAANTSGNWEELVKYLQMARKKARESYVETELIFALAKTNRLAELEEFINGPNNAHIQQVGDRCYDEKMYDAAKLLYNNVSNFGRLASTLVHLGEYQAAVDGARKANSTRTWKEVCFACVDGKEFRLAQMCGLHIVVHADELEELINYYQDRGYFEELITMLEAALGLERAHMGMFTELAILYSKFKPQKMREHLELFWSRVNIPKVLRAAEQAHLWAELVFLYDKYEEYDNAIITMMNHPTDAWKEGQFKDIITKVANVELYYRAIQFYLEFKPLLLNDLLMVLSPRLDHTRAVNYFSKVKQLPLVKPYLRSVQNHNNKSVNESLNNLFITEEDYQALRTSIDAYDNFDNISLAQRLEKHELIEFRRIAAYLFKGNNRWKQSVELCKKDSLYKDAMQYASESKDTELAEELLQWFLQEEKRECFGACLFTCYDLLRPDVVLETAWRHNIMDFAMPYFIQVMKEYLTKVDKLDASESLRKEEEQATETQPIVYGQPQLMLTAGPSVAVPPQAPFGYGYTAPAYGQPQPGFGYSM

B1: clathrin light chain LCa (bovine brain) (natural protein, UniProt P04973 1-243, looked up)
chain: MAELDPFGVPAGGPALGNGVAGEEDPAAAFLAQQESEIAGIENDEAFAILDGGAPGSQPHGEPPGIPDAVDGVTNGDYYQESNGPTDSYAAISQVDRLQSEPESIRKWREEQTERLEALDANSRKQEAEWKEKAIKELDEWYARQDEQLQKTKANNRVADEAFYKQPFADVIGYVTNINHPCYSLEQAAEEAFVNDIEESSPGTEWERVARLCDFNPKSSKQAKDVSRMRSVLISLKQAPLVH
binding result: binds
